Test results: paper PMC4826270

Biological target: SecA* (SecA795C labelled with 5-iodoacetamidofluorescein) (UniProt P10408)
Assay: other fluorescence titration; SecYEG variant in detergent titrated into 10 nM fluorescein-labelled SecA*; quenching read at 522 nm; 20 mM Tris pH 8, 130 mM NaCl, 10% glycerol, 0.02% DDM, 2 mM MgCl2, 1 mM AMP-PNP; fitted to a tight binding equation

Kd | Substance
42 nM | SecY_(prlA4-EDP)EG (SecY_(F286Y,I408N,R357E,P358D,G359P)EG) (from UniProt P0AGA2 1-443; P0AG96 1-127; P0AG99 1-110) (complex)
135 nM | SecYEDPEG (SecY_(R357E/P358D/G359P)EG) (from UniProt P0AGA2 1-443; P0AG96 1-127; P0AG99 1-110) (complex)
36 nM | SecY_(prlA4)EG (SecY_(F286Y/I408N)EG) (from UniProt P0AGA2 1-443; P0AG96 1-127; P0AG99 1-110) (complex)
